Assay results as given in patent publication US7109299B1, “Peptides and compounds that bind to the IL-5 receptor” (Affymax, Inc., priority 1999, dated 2006).
Bridge positions count the residues as written; N and C are the ends. Ends that are not written are not given here. Peptide text beside a SMILES is read from it. I, II: the chains in the order shown.

Tests used:
[1] = target: T1, chimeric IL-5Rα/EGFR receptor (Homo sapiens, UniProt P00533+Q01344); assay: chimeric IL-5Rα/EGFR luciferase reporter cell assay in Ba/F3 cells; format: cell-based; details: for luciferase activity of Ba/F3 cells expressing the chimera: serial dilutions, 4 hr
T1 construct: A chimeric receptor consisting of the IL-5Rα ECD fused to the transmembrane spanning and intracellular domains; expressed in transfected cells; host or cells: Ba/F3 cells with c-fos enhancer/TK promoter luciferase reporter
Source text: A system comprising a chimeric IL-5R-α/EGFR reported cell assay was designed to analyze receptor binding stoichiometry in a cellular context. A chimeric receptor consisting of the IL-5Rα ECD fused to the transmembrane spanning and intracellular domains of the epidermal growth factor receptor (EGFR) was constructed, and stably expressed in Ba/F3 cells that also contained a luciferase reporter gene under the transcriptional control of the c-fos enhancer and minimal thymidine kinase promoter.
In the assay, Ba/F3 cells expressing a chimeric IL-5Rα/EGFR receptor and containing a luciferase reporter gene were starved overnight of the WEHI conditioned medium in which they were maintained, then seeded into microtiter wells at a density of 10^5 cells/well. Following stimulation, the cells were incubated for 4 hr at 37° in a 5% CO2 incubator. LucLite reagent (Packard) was then added to the wells according to the manufacturer's instructions and the plates were assayed for luciferase activity by counting in a Topcount instrument (Packard). Data points represent mean±SEM for 3 separate experiments performed in triplicate. The data has been normalized to the stimulation induced by 1 μM AF18748 in each experiment.

IL-5RαECD = IL-5RαECD (Homo sapiens, UniProt Q01344); details: AF18748 over 10 pM to 1 nM; binding decreases above 1 nM
Experimental: A “sandwich” binding assay using microvolume fluorimetry (Martens et al., Anal. Biochem., 273:20 (1999)) was used to measure the ligand dependent association of two receptor proteins. IL-5RαECD (the extracellular domain (ECD) of the human IL-5 receptor a chain) was immobilized onto 10 μm beads and incubated with soluble, fluorescently labeled IL-5Rα ECD in the presence or absence of IL-5 or peptide.
Fluorescently labeled mAb 179 was prepared using Cy5 monofunctional reactive dye (Amersham) according to the manufacturer's instructions. (As disclosed in Martens et al., supra, Cy5.5 dye is also suitable.) Fluorescent mAb179:IL-5Rα ECD complexes were formed by preincubating the labeled antibody with an equimolar amount of receptor ECD in phosphate buffered saline (PBS) for 1 hr at room temperature. Mono A 10 μm polystyrene beads (Pharmacia) were coated first with biotinylated bovine serum albumin, then sequentially with streptavidin, biotinylated mAb179, and IL-5Rα ECD. […]
The binding reactions were incubated in microtiter plates overnight at room temperature, then microvolume fluorimetry measurements of bead-associated fluorescence were made using an FMAT instrument (Perkin-Elmer).

human IL-5 receptor = target: T2, human IL-5 receptor (Homo sapiens, UniProt Q01344); details: HL60 subclone, sodium butyrate induced; read-out: Kd of IL-5 binding sites; cited from earlier work
T2 construct: host or cells: HL60 subclone induced towards eosinophil differentiation with sodium butyrate
T2 sequence (Q01344 21-420): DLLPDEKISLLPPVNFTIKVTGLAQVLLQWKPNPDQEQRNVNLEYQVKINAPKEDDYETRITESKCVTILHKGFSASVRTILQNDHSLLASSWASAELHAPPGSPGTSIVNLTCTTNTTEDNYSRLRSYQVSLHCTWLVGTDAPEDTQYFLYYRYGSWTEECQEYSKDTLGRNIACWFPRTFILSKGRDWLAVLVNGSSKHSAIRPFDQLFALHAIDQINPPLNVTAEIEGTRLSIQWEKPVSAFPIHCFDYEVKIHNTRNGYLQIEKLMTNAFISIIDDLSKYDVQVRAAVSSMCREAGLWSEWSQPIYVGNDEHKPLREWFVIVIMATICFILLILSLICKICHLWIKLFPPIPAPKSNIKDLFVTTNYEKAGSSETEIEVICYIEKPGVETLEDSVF
T2 sequence (P32927 17-897 partner): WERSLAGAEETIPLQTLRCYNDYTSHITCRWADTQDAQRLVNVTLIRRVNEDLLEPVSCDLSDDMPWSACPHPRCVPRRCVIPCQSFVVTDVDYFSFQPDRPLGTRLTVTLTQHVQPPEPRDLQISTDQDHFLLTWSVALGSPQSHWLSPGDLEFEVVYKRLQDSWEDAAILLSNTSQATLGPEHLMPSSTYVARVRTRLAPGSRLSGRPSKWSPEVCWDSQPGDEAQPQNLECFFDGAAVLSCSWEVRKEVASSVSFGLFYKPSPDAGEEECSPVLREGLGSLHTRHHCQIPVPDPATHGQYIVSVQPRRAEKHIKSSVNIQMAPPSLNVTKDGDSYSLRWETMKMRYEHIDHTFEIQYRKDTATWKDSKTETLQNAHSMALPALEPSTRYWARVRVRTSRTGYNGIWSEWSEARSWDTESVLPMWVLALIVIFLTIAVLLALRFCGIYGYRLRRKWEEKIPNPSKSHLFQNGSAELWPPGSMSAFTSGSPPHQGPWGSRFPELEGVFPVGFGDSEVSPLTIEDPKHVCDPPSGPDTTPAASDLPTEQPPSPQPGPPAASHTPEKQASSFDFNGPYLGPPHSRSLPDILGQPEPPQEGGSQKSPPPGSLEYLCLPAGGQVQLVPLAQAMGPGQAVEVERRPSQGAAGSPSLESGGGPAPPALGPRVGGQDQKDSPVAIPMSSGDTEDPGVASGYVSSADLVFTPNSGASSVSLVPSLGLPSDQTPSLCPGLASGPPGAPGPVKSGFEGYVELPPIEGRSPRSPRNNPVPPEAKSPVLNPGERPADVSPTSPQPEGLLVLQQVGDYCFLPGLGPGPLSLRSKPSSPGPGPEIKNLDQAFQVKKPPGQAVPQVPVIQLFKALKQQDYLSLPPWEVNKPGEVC

IL-5Rα ECD [2] = target: T3, IL-5Rα ECD (Homo sapiens, UniProt Q01344); assay: biochemical
T3 sequence (Q01344 21-342 limits assumed): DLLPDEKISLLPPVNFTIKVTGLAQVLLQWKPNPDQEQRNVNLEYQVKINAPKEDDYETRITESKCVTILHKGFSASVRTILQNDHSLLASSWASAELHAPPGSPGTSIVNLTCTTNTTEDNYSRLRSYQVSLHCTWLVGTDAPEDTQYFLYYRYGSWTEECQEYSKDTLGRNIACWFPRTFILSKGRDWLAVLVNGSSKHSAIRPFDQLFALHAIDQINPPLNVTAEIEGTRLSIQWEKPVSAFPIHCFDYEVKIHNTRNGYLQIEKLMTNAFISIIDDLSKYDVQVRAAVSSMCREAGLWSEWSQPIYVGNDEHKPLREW
Experimental: Binding affinities of synthetic peptides for IL-5Rα were measured in a competition binding assay using radio-iodinated IL-5. Immulon 4 (Dynatech) microtiter wells were coated with streptavidin (Sigma) by incubating 100 μl of a 50 μg/ml solution in PBS for 30 min. at 37°. The wells were blocked with 200 μl of 1% BSA in PBS for 15 min. at 37°, followed by 100 μl of biotinylated monoclonal antibody, designated mAb 179, at 5 μg/ml in PBS. Soluble IL-5Rα was then immobilized in the wells by incubating 100 μl of a solution of soluble receptor harvest diluted 1:5000 in PBS/0.1% BSA for 1 hr. at 4°. After washing away unbound receptor, 50 μl of various concentrations of test peptide diluted in PBS/0.1% BSA were added to the wells, followed by 50 μl of a fixed concentration of [^125I] IL-5 (Amersham). The binding reactions were incubated at 4° C. for 2 hr, then washed with PBS to remove unbound [^125I] IL-5. Bound [^125I] IL-5 was determined by gamma counting. Total binding was defined by the amount of [^125I] IL-5 bound in the absence of any competitor. Non-specific binding was defined by the amount of [^125I] IL-5 bound in the presence of 30 nM IL-5. Peptide binding data was analyzed to determine the peptide concentration required to reduce specific [^125I] IL-5 binding by 50% (IC50).

human eosinophils = format: cell-based
Experimental: The functional activity of AF18748 was assessed in a human eosinophil adhesion assay (following the method of […], et al, Cytokine 8:248 (1996)). […] AF18748 is therefore a potent and selective antagonist of IL-5 in a human eosinophil functional assay.

[3] = target: T4, native IL-5R α/β complex on TF-1 cells (Homo sapiens, UniProt Q01344); assay: competition binding of [125I] IL-5 to TF-1 cells; details: read-out: IC50, inhibition of binding of [125I] IL-5 to TF-1 cells
T4 construct: endogenous in cells; host or cells: TF-1 cells
T4 sequence (Q01344 21-420): T2 sequence (Q01344 21-420)
Experimental: The ability of AF18748 to bind to the native IL-5R α/β complex on TF-1 cells was assessed in a competition binding assay (as described in McKinnon et al., J. Exp. Med 186: 121 (1997)). The binding of [^125I]

IL-5Rα ECD [4] = target: T3, IL-5Rα ECD; assay: gel filtration chromatography of IL-5Rα ECD with peptide; set-up: IL-5RαECD=ECD of the human IL-5 receptor a chain
Experimental: Secondly, the ability of peptides to induce receptor dimerization was studied using gel filtration chromatography. Gel filtration chromatography was performed on a Pharmacia Smart system using a Precision Superdex 200 3.2/30 column at 25° C. with a flow rate of 10 μl/min. The buffer was 50 mM Tris pH 7.5, 0.5 M NaCl. The column was calibrated using the Biorad Gel filtration molecular weight standards which contain Thyroglobulin, 670 KD; Bovine gamma globulin, 158 KD; Chicken ovalbumin, 44 KD; Equine myoglobin, 17 KD; Vitamin B12, 1.35 KD. […] Results shown are from a single experiment, representative of three separate runs for each condition.

[5] = IL-5Rα ECD with equimolar peptide, Superdex 200

T1 sequence (Q01344+P00533 fused, stated change not applied): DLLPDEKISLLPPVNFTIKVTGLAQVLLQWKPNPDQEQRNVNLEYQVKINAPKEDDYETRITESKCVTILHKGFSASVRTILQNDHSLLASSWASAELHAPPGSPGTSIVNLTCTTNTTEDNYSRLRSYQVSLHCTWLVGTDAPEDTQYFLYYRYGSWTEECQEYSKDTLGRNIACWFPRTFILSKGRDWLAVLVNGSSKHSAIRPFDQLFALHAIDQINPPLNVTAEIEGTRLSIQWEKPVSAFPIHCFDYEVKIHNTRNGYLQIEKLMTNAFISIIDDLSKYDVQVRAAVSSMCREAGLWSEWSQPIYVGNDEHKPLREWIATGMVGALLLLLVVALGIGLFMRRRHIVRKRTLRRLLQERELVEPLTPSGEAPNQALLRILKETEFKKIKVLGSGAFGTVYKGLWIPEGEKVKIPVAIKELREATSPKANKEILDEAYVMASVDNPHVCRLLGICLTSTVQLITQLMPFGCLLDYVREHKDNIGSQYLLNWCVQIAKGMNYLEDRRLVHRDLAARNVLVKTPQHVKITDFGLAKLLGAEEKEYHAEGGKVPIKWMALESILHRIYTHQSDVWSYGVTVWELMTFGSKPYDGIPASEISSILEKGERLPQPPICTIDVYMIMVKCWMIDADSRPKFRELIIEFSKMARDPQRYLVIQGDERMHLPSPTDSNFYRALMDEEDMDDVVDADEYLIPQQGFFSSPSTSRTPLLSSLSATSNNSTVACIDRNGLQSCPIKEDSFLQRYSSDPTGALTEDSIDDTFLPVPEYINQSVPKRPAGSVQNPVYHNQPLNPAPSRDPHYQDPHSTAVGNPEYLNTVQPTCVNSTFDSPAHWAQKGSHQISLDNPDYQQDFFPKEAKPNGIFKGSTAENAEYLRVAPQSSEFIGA

Row | Compound | basal level of luciferase expression in unstimulated cells [1] | effect on activation of the luciferase reporter by AF18748 ([1]; 200 pM AF18748, increasing concentrations of IL-5) | luciferase activity of Ba/F3 cells expressing the chimera [1] | association of fluorescently labeled IL-5Rα ECD to IL-5RαECD-coated beads (IL-5RαECD) | Kd (human IL-5 receptor) [nM] | IC50 (IL-5Rα ECD [2]) [nM] | IC50 (human eosinophils) [nM] | IC50 [3] [nM] | Receptor State (IL-5Rα ECD [4]; IL-5Rα ECD with equimolar peptide) | Calculated MW (IL-5Rα ECD [4]; [5]) [kDa] | Elution Volume (IL-5Rα ECD [4]; [5]) | effect on elution / apparent size of IL-5Rα ECD (IL-5Rα ECD [4]; gel filtration)
1 | IL-5: Interleukin 5, natural ligand, disulfide linked homodimer | reduced basal level of luciferase expression | antagonized | no effect | did not mediate receptor association | 0.03 | – | – | – | – | – | – | –
2 | CC(C)[C@H](NC(=O)[C@H](CSSC[C@H](NC(=O)[C@@H](NC(=O)[C@H](Cc1ccc(O)cc1)NC(=O)CNC(=O)[C@H](CC(=O)O)NC(=O)CNC(=O)CNC(=O)CNC(=O)[C@@H](N)[C@@H](C)O)C(C)C)C(=O)N[C@H](C(=O)N[C@@H](CCC(=O)O)C(=O)N[C@@H](Cc1c[nH]c2ccccc12)C(=O)N[C@@H](C)C(=O)N[C@@H](CCCNC(=N)N)C(=O)N[C@H]1CSSC[C@@H](C(=O)N[C@@H](CCCCN)C(=O)O)NC(=O)[C@H]([C@@H](C)O)NC(=O)[C@@H]2CCCN2C1=O)C(C)C)NC(=O)[C@@H](NC(=O)[C@H](Cc1ccc(O)cc1)NC(=O)CNC(=O)[C@H](CC(=O)O)NC(=O)CNC(=O)CNC(=O)CNC(=O)[C@@H](N)[C@@H](C)O)C(C)C)C(=O)N[C@@H](CCC(=O)O)C(=O)N[C@@H](Cc1c[nH]c2ccccc12)C(=O)N[C@@H](C)C(=O)N[C@@H](CCCNC(=N)N)C(=O)N[C@H]1CSSC[C@@H](C(=O)N[C@@H](CCCCN)C(=O)O)NC(=O)[C@H]([C@@H](C)O)NC(=O)[C@@H]2CCCN2C1=O [AF18748] (I: H-TGGGDGYVCVEWARCPTCK-OH / II: H-TGGGDGYVCVEWARCPTCK-OH; disulfide I:9-II:9, I:15-I:18, II:15-II:18) | – | – | – | – | – | 0.78 | 0.348 ± 0.067 | 0.4 ± 0.04 | – | – | – | –
3 | VDECWRIIASHTWFCAEE (disulfide 4-15 (inferred)) [AF17121] | reduced basal level of luciferase expression | – | no effect | did not mediate the association of labeled receptor with the beads | – | – | – | – | Monomer | 89.5 | 1.425 | no effect on the elution of the receptor
